In paper PMC6453779, “The Different Effects of Substrates and Nucleotides on the Complex Formation of ABC Transporters” (Structure(London, England:1993), 2019):

Key:
BtuCD-F = target: T1, BtuCD-F (Escherichia coli, UniProt P06611); assay: native mass spectrometry; format: binding; details: then BtuF, C8E4
T1 construct: gene btuD; BtuC2D2-F complex; BtuCD from pET19b-BtuCD in E. coli BL21(DE3), LDAO purified, MS in C8E4; BtuF residues 23-266; theoretical mass 158,253 Da; with Vitamin B12 import system permease protein BtuC
T1 sequence (P06611 1-249): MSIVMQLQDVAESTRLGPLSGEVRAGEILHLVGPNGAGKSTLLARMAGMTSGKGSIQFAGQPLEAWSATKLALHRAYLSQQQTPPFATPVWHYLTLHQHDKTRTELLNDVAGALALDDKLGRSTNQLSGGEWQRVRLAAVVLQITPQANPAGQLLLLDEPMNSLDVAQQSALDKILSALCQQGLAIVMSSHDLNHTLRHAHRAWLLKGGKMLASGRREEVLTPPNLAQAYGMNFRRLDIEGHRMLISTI
T1 sequence (P06609 1-326 partner): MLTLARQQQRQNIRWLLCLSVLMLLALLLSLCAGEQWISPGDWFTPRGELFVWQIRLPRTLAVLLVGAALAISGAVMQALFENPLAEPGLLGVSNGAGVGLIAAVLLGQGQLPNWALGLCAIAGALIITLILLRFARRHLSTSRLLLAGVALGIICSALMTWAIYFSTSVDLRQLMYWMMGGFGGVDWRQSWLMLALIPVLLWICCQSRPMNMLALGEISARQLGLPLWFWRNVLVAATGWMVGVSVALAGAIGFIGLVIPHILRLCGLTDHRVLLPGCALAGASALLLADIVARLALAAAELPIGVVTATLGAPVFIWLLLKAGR
T1 sequence (P37028 23-266 partner): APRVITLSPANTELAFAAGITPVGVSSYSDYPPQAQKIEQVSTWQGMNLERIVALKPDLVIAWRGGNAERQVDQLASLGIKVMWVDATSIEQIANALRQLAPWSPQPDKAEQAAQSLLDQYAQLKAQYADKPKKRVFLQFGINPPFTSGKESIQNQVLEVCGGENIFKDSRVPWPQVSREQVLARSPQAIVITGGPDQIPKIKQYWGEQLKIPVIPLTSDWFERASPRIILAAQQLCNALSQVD

[1] = target: T2, ModBC-A⋅MoO4^2− (nucleotide row) (Archaeoglobus fulgidus, UniProt O30144); assay: native mass spectrometry; format: binding; details: 10 uM ATP and MgCl2 added to ModBC, ModA preloaded with molybdate; one and two ADP bound; C8E4
T2 construct: gene wtpC; nucleotide site on the NBDs (ModC); with Molybdate/tungstate transport system permease protein WtpB

BtuCD = target: T3, BtuCD (Escherichia coli, UniProt P06611); assay: native mass spectrometry; format: binding; details: free BtuCD population beside BtuCD-F, C8E4
T3 construct: gene btuD; BtuC2D2 tetramer without BtuF; pET19b-BtuCD in E. coli BL21(DE3), LDAO purified, MS in C8E4; theoretical mass 128,839 Da; with Vitamin B12 import system permease protein BtuC
T3 sequence (P06611 1-249): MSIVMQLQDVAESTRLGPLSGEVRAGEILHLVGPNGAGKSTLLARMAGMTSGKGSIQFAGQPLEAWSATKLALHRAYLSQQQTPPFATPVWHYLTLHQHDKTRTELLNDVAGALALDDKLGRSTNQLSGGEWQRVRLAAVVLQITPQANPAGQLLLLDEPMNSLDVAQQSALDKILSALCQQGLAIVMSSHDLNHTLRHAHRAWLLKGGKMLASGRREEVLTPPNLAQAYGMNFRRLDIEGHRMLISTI
T3 sequence (P06609 1-326 partner): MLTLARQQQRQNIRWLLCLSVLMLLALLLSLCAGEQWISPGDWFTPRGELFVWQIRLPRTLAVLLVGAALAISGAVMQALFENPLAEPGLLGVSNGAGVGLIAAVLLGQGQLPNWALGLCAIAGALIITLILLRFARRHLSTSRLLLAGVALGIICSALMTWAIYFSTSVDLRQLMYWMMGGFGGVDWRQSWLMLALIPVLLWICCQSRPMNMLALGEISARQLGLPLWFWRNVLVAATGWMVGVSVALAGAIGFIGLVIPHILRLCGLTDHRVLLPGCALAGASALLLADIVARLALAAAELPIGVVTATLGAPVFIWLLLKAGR

[2] = target: T4, vitamin B12 transporter BtuCD (BtuC2D2) of Escherichia coli (E. coli, UniProt P06609 1-326; P06611 1-249); assay: native MS; BtuF and BtuCD incubated in a 1:2 molar ratio (BtuF:BtuCD) in 200 mM ammonium acetate with 0.5% C8E4; without ligand, or with 2 mM vitamin B12, dicyanocobinamide or vitamin B9 added to BtuF before buffer exchange, or 5 mM ATP/MgCl2 or 5 mM AMP-PNP added to BtuCD before buffer exchange, or vitamin B12 and ATP together; details: both partners purified
T4 construct: BtuC, transmembrane subunit of the vitamin B12 importer BtuCD, E. coli; construct pET19b-BtuCD, gift from Kaspar Locher; Purified on a HisTrap column from pET19b-BtuCD; also called tetrameric transporter; source: E. coli BL21(DE3), purified from membranes (LDAO, HisTrap, Superdex 200 SEC); copies: 2 + 2
T4 sequence 1: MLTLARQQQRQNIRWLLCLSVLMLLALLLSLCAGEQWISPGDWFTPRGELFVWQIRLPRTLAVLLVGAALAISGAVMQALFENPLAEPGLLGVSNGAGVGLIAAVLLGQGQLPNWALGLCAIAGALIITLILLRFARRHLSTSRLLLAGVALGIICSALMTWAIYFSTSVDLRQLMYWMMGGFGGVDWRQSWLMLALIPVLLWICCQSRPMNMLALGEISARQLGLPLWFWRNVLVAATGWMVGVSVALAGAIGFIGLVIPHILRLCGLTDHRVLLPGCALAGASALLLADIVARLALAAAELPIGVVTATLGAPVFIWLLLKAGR
T4 sequence 2: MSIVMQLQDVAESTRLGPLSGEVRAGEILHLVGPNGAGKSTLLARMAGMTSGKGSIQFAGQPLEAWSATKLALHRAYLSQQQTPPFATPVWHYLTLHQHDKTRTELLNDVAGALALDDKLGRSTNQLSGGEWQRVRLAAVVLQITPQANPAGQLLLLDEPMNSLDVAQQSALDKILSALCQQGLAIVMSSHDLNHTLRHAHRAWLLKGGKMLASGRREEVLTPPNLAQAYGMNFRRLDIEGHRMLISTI

[3] = target: T5, ModB, transmembrane subunit of ModBC of Archaeoglobus fulgidus (A. fulgidus, UniProt O30143 1-261); assay: native MS; co-expressed and co-purified transporter alone, buffer exchanged into 200 mM ammonium acetate with 0.5% C8E4; details: both partners purified
T5 construct: ModB, transmembrane subunit of the molybdate importer ModBC, A. fulgidus; construct pET19b-ModBC; source: E. coli BL21(DE3), co-purified as ModBC from membranes (DDM and C12E8, HisTrap, SEC)
T5 sequence: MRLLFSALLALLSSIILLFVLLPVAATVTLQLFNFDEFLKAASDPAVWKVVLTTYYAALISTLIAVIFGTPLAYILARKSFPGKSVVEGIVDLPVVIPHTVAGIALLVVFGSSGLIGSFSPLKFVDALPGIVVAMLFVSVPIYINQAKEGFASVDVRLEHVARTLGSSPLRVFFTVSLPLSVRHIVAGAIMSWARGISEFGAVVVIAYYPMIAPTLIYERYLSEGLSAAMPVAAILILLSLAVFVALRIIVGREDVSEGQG

[4] = target: T6, BtuC, transmembrane subunit of BtuCD of Escherichia coli (E. coli, UniProt P06609 1-326); assay: as above; details: both partners purified
T6 construct: BtuC, transmembrane subunit of the vitamin B12 importer BtuCD, E. coli; construct pET19b-BtuCD; source: E. coli BL21(DE3), co-purified as BtuCD from membranes (LDAO, HisTrap, SEC)
T6 sequence: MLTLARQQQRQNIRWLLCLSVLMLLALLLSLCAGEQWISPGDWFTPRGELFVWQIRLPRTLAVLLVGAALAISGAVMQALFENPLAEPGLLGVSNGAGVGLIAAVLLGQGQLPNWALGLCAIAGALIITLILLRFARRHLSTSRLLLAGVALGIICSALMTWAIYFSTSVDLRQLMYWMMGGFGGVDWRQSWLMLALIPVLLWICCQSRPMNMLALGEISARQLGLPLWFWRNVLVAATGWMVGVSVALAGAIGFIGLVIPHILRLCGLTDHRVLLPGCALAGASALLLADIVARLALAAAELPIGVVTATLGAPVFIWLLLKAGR

T2 sequence (O30142 32-342 partner, one chain of several): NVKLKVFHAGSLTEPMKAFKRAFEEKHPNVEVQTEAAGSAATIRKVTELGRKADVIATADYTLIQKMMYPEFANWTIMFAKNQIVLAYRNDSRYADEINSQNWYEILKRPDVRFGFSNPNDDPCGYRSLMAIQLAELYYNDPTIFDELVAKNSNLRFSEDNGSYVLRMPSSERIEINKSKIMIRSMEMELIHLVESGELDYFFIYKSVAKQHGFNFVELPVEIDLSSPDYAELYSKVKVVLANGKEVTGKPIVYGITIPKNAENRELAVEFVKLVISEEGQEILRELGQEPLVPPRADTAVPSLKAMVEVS

Question: What does the source list for `Nc1ncnc2c1ncn2[C@@H]1O[C@H](COP(=O)(O)OP(=O)(O)O)[C@@H](O)[C@H]1O` [ADP]?
Answer: observed mass of complex (BtuCD-F; 5 mM ATP and 5 mM MgCl2 added to BtuCD before buffer exchange, one and two ADP bound): two nucleotide-bound states with one and two ADP molecules bound; observed mass of complex [1]: an apo form and the species bound to one and two ADP molecules; bound species by mass (BtuCD; 5 mM ATP and 5 mM MgCl2 added before buffer exchange): The presence of ADP-bound species of both BtuCD-F and BtuCD are observed

Question: Which “observed mass of complex” value (BtuCD-F; 5 mM AMP-PNP added to BtuCD before buffer exchange, two bound) does the source give for `Nc1ncnc2c1ncn2[C@@H]1O[C@H](COP(=O)(O)OP(=O)(O)NP(=O)(O)O)[C@@H](O)[C@H]1O` [AMP-PNP, Adenosine 5’-(β,γ-imido)triphosphate] here?
Answer: Its value is “apo-BtuCD-F as well as a population assigned to BtuCD-F⋅2AMP-PNP”.

Question: And the “bound species by mass” value (BtuCD; 5 mM AMP-PNP added before buffer exchange)?
Answer: Its value is “BtuCD was bound to the two different nucleotides in a similar fashion”.

B1: periplasmic vitamin B12 substrate-binding protein BtuF of Escherichia coli (aa 23-266) (natural protein, E. coli, UniProt P37028 23-266, looked up)
chain: APRVITLSPANTELAFAAGITPVGVSSYSDYPPQAQKIEQVSTWQGMNLERIVALKPDLVIAWRGGNAERQVDQLASLGIKVMWVDATSIEQIANALRQLAPWSPQPDKAEQAAQSLLDQYAQLKAQYADKPKKRVFLQFGINPPFTSGKESIQNQVLEVCGGENIFKDSRVPWPQVSREQVLARSPQAIVITGGPDQIPKIKQYWGEQLKIPVIPLTSDWFERASPRIILAAQQLCNALSQVD
notes: also called SBP; source: E. coli BL21(DE3), purified (HisTrap, SEC; same protocol as ModA, final buffer with 10 mM DTT)
Question: With B1 as the molecule, how does the “uncomplexed BtuCD relative to BtuCD-F (100%), with dicyanocobinamide” value [2] read?
Answer: The value was 44%.

Question: What about the “uncomplexed BtuCD relative to BtuCD-F (100%), with vitamin B9” value [2] of the same molecule?
Answer: The value was 15%.

Question: And the “uncomplexed BtuCD relative to BtuCD-F (100%), with vitamin B12” value [2]?
Answer: Its value is 45%.

Question: What about the “uncomplexed BtuCD relative to BtuCD-F, no substrate” value [2] of the same molecule?
Answer: The value was 10%.

Question: What about the “uncomplexed BtuCD relative to BtuCD-F, with AMP-PNP” value [2] of the same molecule?
Answer: The value was 43%.

Question: And the “uncomplexed BtuCD relative to BtuCD-F, with ATP” value [2]?
Answer: The value was 40%.

B2: ModC, nucleotide binding subunit of ModBC of Archaeoglobus fulgidus (natural protein, A. fulgidus)
chain: MFLKVRAEKRLGNFRLNVDFEMGRDYCVLLGPTGAGKSVFLELIAGIVKPDRGEVRLNGADITPLPPERRGIGFVPQDYALFPHLSVYRNIAYGLRNVERVERDRRVREMAEKLGIAHLLDRKPARLSGGERQRVALARALVIQPRLLLLDEPLSAVDLKTKGVLMEELRFVQREFDVPILHVTHDLIEAAMLADEVAVMLNGRIVEKGKLKELFSAKNGEVAEFLSARNLLLKVSKILD
notes: construct pET19b-ModBC; source: E. coli BL21(DE3), co-purified as ModBC from membranes (DDM and C12E8, HisTrap, SEC)
Question: Does B2 bind [3]?
Answer: Result: binds

B3: BtuD, nucleotide binding subunit of BtuCD of Escherichia coli (natural protein, E. coli)
chain: MSIVMQLQDVAESTRLGPLSGEVRAGEILHLVGPNGAGKSTLLARMAGMTSGKGSIQFAGQPLEAWSATKLALHRAYLSQQQTPPFATPVWHYLTLHQHDKTRTELLNDVAGALALDDKLGRSTNQLSGGEWQRVRLAAVVLQITPQANPAGQLLLLDEPMNSLDVAQQSALDKILSALCQQGLAIVMSSHDLNHTLRHAHRAWLLKGGKMLASGRREEVLTPPNLAQAYGMNFRRLDIEGHRMLISTI
notes: construct pET19b-BtuCD; source: E. coli BL21(DE3), co-purified as BtuCD from membranes (LDAO, HisTrap, SEC)
Question: Does B3 bind [4]?
Answer: Result: binds
